# Results published in US8309140B2, “Effect of porcine sheath proteins on the regeneration activity of periodontal ligament” (priority 2005, dated 2012).
# Entries after “also recorded” stand apart in the source; their conditions may differ.
# Assays:
# [1] = system: human periodontal ligament (HPDL) cells; assay: ALP inducing activity of HPDL cells on cell culture system; assay type: cell-based; conditions: for ALP activity of HPDL cells (porcine sheath proteins and synthetic peptides): 50 μg/ml protein or peptide, TGF-β1 50 ng/ml, BMP-2 500 ng/ml, 10 nM 1α-25dihydroxy-Vitamin D3, 96 h
# From the text: Human periodontal ligament (HPDL) cells were obtained according to the method of Somerman et al., (1988) from healthy premolars which were extracted from the patients for orthodontic reasons. The cells were precultured for 4-6 passages with a-MEM medium to establish the primary cell line. The cells were maintained in the alpha modification of Eagle's medium (α-MEM; Life Technologies, Grand Island, N.Y., USA) containing 10% fetal bovine serum (FBS; Asahi Technoglass, Chiba, Japan) and 1% antibiotics (100 U/ml of Penicillin-G and 100 μg/ml of Streptomycin sulfate; Gibco BRL, Grand Island, N.Y., USA) at 37° C. in a humidified 5% CO2 atmosphere. The ST2 cells (Riken Cell Bank, Tsukuba, Japan), an osteoblast-like mouse bone marrow stromal cell line, were cultured under the same conditions.
# HPDL cells were distributed in 96-well plates at a density of approximately 5×10^5 cells per a well and incubated for 24 h. The growth medium was then changed to contain 10 nM of 1α-25dihydroxy-Vitamin D3 (CALBIOCHEM, La Jolla, Calif.) and 50 μg/ml (final concentration) of fractionated enamel protein samples or synthesized peptides dissolved in ultrapure water. After 96 additional hours of incubation, the cells were washed once with PBS, and ALP activity was determined after a 10 min incubation at 37° C. in 10 mM p-nitrophenylphosphate (substrate) in 100 mM 2-amino-2-methyl-1,3-propanediol-HCl buffer (pH 10.0) containing 5 mM MgCl2. After adding 0.2 M NaOH, which stopped the reaction, the absorbance at 405 nm was read on a plate reader.
# HPDL cells of approximately 5×10^5 cells per well were distributed in 96-well plates and incubated for 24 h. The growth medium was then changed to contain 10 nM of 1α-25dihydroxy-Vitamin D3 and 50 μg/ml (final concentration) of purified sheath protein or synthesized peptide. After 96 additional hours of incubation, ALP activity was determined using p-nitrophenylphosphate as a substrate.
# The bioactivities of these synthetic peptides were tested their cytodifferentiation activity of HPDL cells and ST2 cells by determination of increasing ALP inducing activity on cell culture system. When these peptides applied in cell culture system, the concentration of their peptides was employed around 1 ng/ml. In the case of TGF-1, the concentration was 10 ng/ml.
# Normal human periodontal ligament fibroblasts were maintained in an α-minimal essential medium (α-MEM) containing 10% fetal bovine serum, either with or without 10 nM 1α-25dihydroxy-vitamin D3 and 1% antibiotics (100 U/mL of penicillin G and 100 μg/mL of streptomycin sulfate) at 37° C. in a humidified atmosphere of air containing 5% CO2. Another cell line, ST2 cells, was obtained from an osteoblast-like mouse bone marrow stromal cell line. These cells were cultured in the same conditions as those described above.
# The ALP inducing activities of synthetic peptides using the cell culture of HPDL cells and ST2 cells were examined. The HPDL cells were distributed in 96-well plates at a density of approximately 5×10^5 cells per well and incubated for 24 h. The medium was then changed to α-MEM containing 10 nM of 1α-25dihydroxy-vitamin D3 and either synthetic peptides or growth factors dissolved in ultra-pure water. After 96 h of incubation, the cells were washed once with phosphate-buffered saline, and 10 mM ρ-nitrophenylphosphate in 100 mM 2-amino-2-methel-1,3-propanediol-HCl buffer (pH 10.0) containing 5 mM MgCl2 was added. The ALP activity was determined after 10 min incubation at 37° C. and the absorbance at 405 nm was read using a plate reader, after adding 0.2 M NaOH to stop the reaction. […] When the synthetic peptides were applied in the cell culture system, their final concentrations were 25 or 50 μg/mL. A TGF-β1 receptor inhibitor (SB431542, 10 μM) was applied to the HPDL cell culture system to examine their influence relative to the ALP inducing activity of the synthetic peptides.
# HPDL cells = assay: Mineralization activity of HPDL cells (alizarin red S staining, calcium content); assay type: cell-based, human; conditions: 30 days culture; 1 μg/ml of samples; differentiation medium
# Description: (§1) The HPDL cells were plated in 24-well plates at an initial density of 1×10^5 cells/well. After 24 h of incubation, the medium was replaced with growth medium containing 50 μM ascorbic acid, 10 mM β-glycerophosphate, and 10 nM 1α,25-dihydroxyvitamin D3 (differentiation medium) and 1 μg/ml of samples. The medium was changed every 72 h. The cells were maintained for 30 days and then the medium was discarded.
# The compartments of cells were fixed in 100% methanol, stained with alizarin red S for 10 min, then washed with ultrapure water and photographed to examine the biomineralization activity. The staining solution was 1% alizarin red S (sodium alizarin sulfonate) (Sigma) dissolved in ultrapure water and adjusted to pH 6.4 with 0.1N ammonium hydroxide.
# For measuring the calcium content, the compartments of cells were dissolved by 0.5N hydrochloric acid. The resulting solution was measured by a Calcium C-test kit and protocol (Wako Pure Chemical Industries Ltd, Osaka, Japan). The absorbance at 570 nm was read on a plate reader.
# as §1, with “h and the” for “h. The”, “days. The biomineralization activity was examined by staining with alizarin red S” for “days”, “measuring calcium content.” for “then the medium was discarded.”
# The HPDL cells were plated in six-well plates at an initial density of 1×10^5 cells per well. […]
# For Alizarin Red S staining, the compartments of 28 d cultured cells were fixed in 100% methanol, stained with Alizarin Red S for 10 min, then washed with ultra-pure water and photographed. […] The resulting solution was measured using a Calcium C-test kit and protocol. The absorbance at 570 nm was read with a plate reader. […]
# [2] = system: buccal dehiscence type bone defects created along the roots of the canine mandibular premolars; assay: Cementum regeneration (CR) activity, eight-week histological analysis on buccal dehiscence model of dogs; assay type: in vivo, beagle dogs; conditions: for thickness of regenerated cementum: eight weeks following application, measured at 3 points (apical, middle, coronal), beagle dogs; for CR (cementum regeneration) activity: histological analysis eight weeks after application, buccal dehiscence model of dogs
# Description: Approximately 2-year-old male beagle dogs (approximate 15 kg) were used to detect the CR activities after the applications of several enamel protein samples. They had intact dentition and a healthy periodontium. The surgical preparation of buccal dehiscence type bone defects was carried out according to the modified method of Hammarström (1997) under general anesthesia induced and maintained by an endotracheal tube with 1.5-2.0% of halothane (Takeda Yakuhin Co. LTD, Osaka, Japan) in 100% oxygen, after premedicated with intramuscular injection of the mixture of Ketamine HCl (9.8 mg/kg: Sankyo Co. LTD, Tokyo, Japan) and Xylazine HCl (0.7 mg/kg: Bayer Co. LTD, Tokyo, Japan).
# Contralateral buccal mucoperiosteal flaps were raised after an intracrevicular incision extending from the first mandibular premolar to the first mandibular molar. After the removing the buccal alveolar bone plate covering the mesial root of the second premolars, the exposed periodontal ligament and cementum of these areas were completely removed by means of a dental bur. At the apical end of the defect, a notch was created to identify the apical extension of the defect, when histological analyses. The distance between the cervical margin and the apical end of the defect was standardized at about 5 mm. The exposed root dentin surfaces were conditioned for 2 min with cotton pellets soaked in a 19% EDTA solution, and then carefully rinsed with sterile saline. Then 50 μg of each enamel protein sample in 100 μl of cold sterile distilled water was applied over the entire buccal surface area of the exposed roots. Finally, the mucoperiosteal flaps were repositioned to their level prior to surgery and sutured. Distilled water was used as a negative control and EMDOGAIN® (BIORA AB, Malmö, Sweden) served as a positive control.
# After 8 weeks the dogs were terminated by anesthetization with sodium pentobarbital. Their heads were fixed by perfusion with 0.1 M sodium cacodylate buffer (pH 7.4) containing 4% paraformaldehyde and 1% glutaraldehyde. Tissue blocks, which included teeth, bone, and tissue were dissected and demineralized in 10% formic acid containing 0.06 M sodium citrate and 0.1 M citric acid. All specimens were dehydrated using a graded series of alcohols and then embedded in paraffin. Serial sections (5 μm thick) were made and stained with hematoxylin/eosin for examination by light microscopy.
# The length and thickness of cementums regenerated after application of fractionated and purified enamel protein samples and EMD were measured on the computer monitor of histological results. The length of the regenerated cementum was straight distance between the apical end of the defect and coronal extention of the new cementum, as well as to the crest of the new alveolar bone. Also, the thickness of cementum was measured at coronal end, apical end and between them.
# CR promoting activity of enamel proteins obtained at each extracted and purified step were examined by eight-week histological analysis of buccal dehiscence type bone defects created along the roots of canine mandible (FIG. 1).
Molecule,"ALP activity of HPDL cells (human synthetic peptides, Example 3) ([1]; peptides around 1 ng/ml, TGF-β1 10 ng/ml)",induction of mineralization of HPDL cells (Example 3) (HPDL cells),ALP activity of HPDL cells (porcine sheath proteins and synthetic peptides) [1],ALP activity of HPDL cells (porcine sheath proteins and synthetic peptides) ([1]; listed as 15-kDa sheath protein),thickness of regenerated cementum [2] [μm],CR (cementum regeneration) activity [2],ALP activity of HPDL cells (porcine sheath proteins and synthetic peptides) ([1]; listed as 17 kDa ESP),CR (cementum regeneration) activity ([2]; listed as 17 kDa ESP)
FADPQGPSLPGMDF (14 aa from 157 to 170 in sequence 11; listed as Homo sapiens) [H-3],enhanced dose dependently,enhanced the induction of mineralization,,,,,,
"15 kDa sheath protein: N-terminal cleavage product of sheathlin containing 130 amino acids, lacks C-terminal 40 amino acids of 17 kDa sheath protein (protein) VPAFPRQPGTPGVASLSLETMRQLGSLQGLNMLSQYSRFGFGKSFNSLWMHGLLPPHSSFQWMRPREHETQQYEYSLPVHPPPLPSQPSLQPQQPGQKPFLQPTVVTSIQNPVQKGVPQPPIYQGHPPLQ",,,showed the increase of ALP inducing activity than that of 13 kDa sheath protein,not,8.13±2.06,scarce CR activity,,
"17 kDa sheath protein: Porcine 17 kDa sheath protein, N-terminal cleavage product of sheathlin containing 170 amino acids (protein, listed as Sus scrofa, porcine sheath protein, Porcine 17 kDa sheath protein, N-terminal cleavage product of sheathlin containing 170 amino acids) VPAFPRQPGTPGVASLSLETMRQLGSLQGLNMLSQYSRFGFGKSFNSLWMHGLLPPHSSFQWMRPREHETQQYEYSLPVHPPPLPSQPSLQPQQPGQKPFLQPTVVTSIQNPVQKGVPQPPIYQGHPPLQQVEGPMVQQQVAPSEKPPEAELPGLDFADPQDPSMFPIAR",,,enhanced,,31.77±3.78,"induced a thick acellular cementum; also recorded: induced thick acellular cementum near the apical end of the defect, but the CR was scarce near the coronal end; also recorded: induced a smaller area of cementum regeneration; also recorded: exhibited the CR activity",weaker than that of TGF-β1,stronger cementum regeneration promoting activity
13 kDa sheath protein: sheath protein containing the 99 amino acids extending from M32 to Q130 (protein) MLSQYSRFGFGKSFNSLWMHGLLPPHSSFQWMRPREHETQQYEYSLPVHPPPLPSQPSLQPQQPGQKPFLQPTVVTSIQNPVQKGVPQPPIYQGHPPLQ,,,not,,,do not exhibit any cementum regeneration activity,,
